Residue numbers refer to the chain shown, from its start.

For orientation: Kd means the equilibrium constant for the complex coming apart. As a reminder, the IC50 is the concentration needed to halve the response being measured. Higher therefore signals a need for much substance.

The chains are these.
B1: IMPI-013 (antibody, V domains shown)
VH: EVQLVESGGGLVQPGRSLRLSCAASGFTFDDYAMHWVRQTPGKGLEWVSGISWNSGSIGYADSVKGRFTISRDNAKNSLYLQMNSLRAEDTALYYCTKDLGLGIGFYYGLDVWGQGTTVTVSS
VL: AIQMTQSPSSLSTSVGDRVTITCRASQGIRNDLGWYQLKPGKAPKLLIYDASTLQSGVPSRFSGSGSGTDFTLTISSLEPEDLATYYCLHHYTYPWTFGHGTKVELK
B2: IMPI-055 (antibody, V domains shown)
VH: QVQLVQSGAEVKKPGASVKVSCKASGYTFTSYDINWVRQATGQGLEWMGWMNPNSGNTGYAQKFQGRVTMTRDTSINTAYMELSSLRSEDTAVYFCARGGRYCSDVTCYSGEPFDYWGQGTLVTVSS
VL: EIMLTQSPDFQSVTPKEKVTITCRASQSIGSSLHWYQQKPDQSPKLLIKFASQSISGVPSRFSGSGSGTDFTLTINSLEAEDAAAYYCHQSSSLPHTFGPGTKVEIK
B3: IMPI-004 (antibody, V domains shown)
VH: QVQLVESGGGVVQPGRSLRLSCAASGFTFSSYGMHWVRQAPGKGLEWVAVIWYDGGNKYYADSVKGRFTISRDNSKNTLYLQMNSLRAEDTAVYYCARVNVLMGYGMDVWGQGTTVTVSS
VL: EIVLTQSPGTLSLSPGDKATLSCRASQSIISSFLAWYQQKPGQAPRLLIYGASSRATGIPDRFSGSGSGTDFTLTISRLEPEDFAVYYCQQYGSSLTFGGGTKVEIK
B4: IMPI-054 (antibody, V domains shown)
VH: EVQLVESGGGLIQPGGSLRLSCAASGLTVSSNYMSWVRQAPGKGLEWVSIIYSGGSTYYADSVKGRFTISRDNSKNTLYLQMNSLRAEDTAVYYCARLGGYYYYGMDVWGQGTTVTVSS
VL: DIQMTQSPSSLSASVGERVTITCQASQDIRNYLNWYQKKPGKAPKLLIYDSSNLETGVPSRFSGSGSGTDFTFTISSLQPEDIATYYCQQYDNLPITFGQGTRLEIK
B5: IMPI-029 (antibody, V domains shown)
VH: EVQLVESGGGLIQPGGSLRLSCAASGVTVSSNYMNWVRQAPGKGLEWVSVIYSGGSTYYADSVKGRFTISRDNSKNTLFLQMNSLRAEDSAVYYCARDLGPYGVDVWGQGTTVTVSS
VL: DIQLTQSPSFLSASVGDRVTITCWASQGISSYLAWYQQKPGKAPKLLIYAASTLQSGVPSRFSGSGSGTEFTLTISSLQPEDFATYYCQELNSYPLTFGQGTRLEIK
B6: IMPI-037 (antibody, V domains shown)
VH: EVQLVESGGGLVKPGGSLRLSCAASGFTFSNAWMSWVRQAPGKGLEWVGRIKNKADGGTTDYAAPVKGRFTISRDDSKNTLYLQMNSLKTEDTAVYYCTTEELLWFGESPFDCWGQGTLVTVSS
VL: B5 VL with S30N, A84T, E90Q, L91F, S93D, L96R, Q100P, R103K, L104V
B7: IMPI-047 (antibody, V domains shown)
VH: B5 VH with V27F, F79Y, A87T, S90T, G100V, P101A, V104M
VL: B5 VL with L46V, E90L, Y94N, Q100G, R103K, L104V
B8: IMPI-017 (antibody, V domains shown)
VH: B5 VH with S25A, V27L, A40V, F79Y, S90T, P101T, Y102L, V104M
VL: B5 VL with S31T, E90Q, P95L, L96P, R103K, L104V
B9: IMPI-056 (antibody, V domains shown)
VH: B5 VH with V27L, G44K, Y58F, K64R
VL: B5 VL with E90Q
B10: IMPI-005 (antibody, V domains shown)
VH: B5 VH with V27F
VL: B5 VL
B11: IMPI-060 (antibody, V domains shown)
VH: B5 VH with N35S, Y58F, F79Y, S90T, G100S, P101Y, V104M
VL: B5 VL with R61K, E90Q, L96S, T97S, R103K
B12: IMPI-059 (antibody, V domains shown)
VH: EVQLVESGGGLIQPGGSLRLSCAASGFTVSSIYMSWVRQAPGKGLEWVSIIYSRGSTDYADSVKGRFTISRDISKNTLYLQMNSLRAEDTAVYYCARDGTMVRGVHAFDIWGQGTMVTVSS
VL: DIQMTQSPPSLSASIGDRVTITCQASQDISNYLNWYQQKPGKAPKLLIYDASNLETGVPSRFSGSGSGTDFTLTISNLQPEDIVTYYCQQYDNLPSSFGQGTKLEIK

The target of one assay is SARS-CoV-2 spike protein trimer stabilised by double proline (PP) mutation (FIG. 2B sequence) with C (SARS-CoV-2, UniProt P0DTC2 14-1208; P10104 458-484).
B1 showed a Kd of 0.299 nM.

A further assay has as its target full soluble spike trimer of SARS-CoV-2 virus (stabilised, in-house) (SARS-CoV-2, UniProt P0DTC2 14-1208; P10104 458-484).
With B2, the IC50 worked out at 4.5 nM.

B3 returned an IC50 of 4.09 nM.

B4 registered a half-maximal inhibitory concentration (IC50) of 11.6 nM. As to B5, 3.31 nM corresponded to half-maximal inhibition (IC50). Still for that read-out and setting: with B6 the figure was 13.7 nM; with B7, 7.3 nM; with B8, 3.15 nM. With B9, inhibition was half-maximal at 3.73 nM (IC50).

B10 registered a half-inhibitory concentration (IC50) of 13.1 nM. Still for that read-out and setting: with B11 the figure was 5.26 nM. On the same count and under the same terms, with B12 the figure was 8.38 nM.

The values are drawn from US20250026813A1 (published 2025).
